Read-outs that look alike come from different tables or passages of the source.
What was measured:
[1] = molecular target: T1, recombinant human TNF-α (human, UniProt P01375 77-233); assay: ELISA, Xceptor captured by anti-human Fc
T1 construct: also called rhTNFα

[2] = molecular target: T2, recombinant human soluble IL6 receptor (human, UniProt P08887 20-358); assay: ELISA, Xceptor captured by anti-human Fc
T2 construct: also called sIL6R; sIL-6R
T2 sequence (looked up): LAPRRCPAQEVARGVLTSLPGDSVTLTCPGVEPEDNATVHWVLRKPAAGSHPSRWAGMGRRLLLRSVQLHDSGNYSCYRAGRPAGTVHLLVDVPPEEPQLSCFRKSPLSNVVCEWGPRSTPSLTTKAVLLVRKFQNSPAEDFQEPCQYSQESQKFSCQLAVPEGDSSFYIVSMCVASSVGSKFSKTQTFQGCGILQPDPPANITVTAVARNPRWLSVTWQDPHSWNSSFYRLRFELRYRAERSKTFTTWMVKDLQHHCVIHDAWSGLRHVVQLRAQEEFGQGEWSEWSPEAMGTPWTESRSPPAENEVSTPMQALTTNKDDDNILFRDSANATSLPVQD

[3] = molecular target: T3, sIL6R Fc dimer (UniProt P08887 20-358, limits assumed); assay: SPR Biacore T100, binder captured by anti-human Fc
T3 construct: not shown: Fc
T3 sequence (looked up): T2 sequence (looked up)

[4] = molecular target: T4, recombinant human IL6 (human, UniProt P05231 30-212); assay: SPR Biacore T100, binder captured by anti-human Fc
T4 construct: also called rhIL6; IL6 monomer

[5] = molecular target: T5, hu HIL6 Fc dimer (dimeric human HIL6/mouse IgG Fc fusion protein) (human); assay: SPR Biacore T100, binder captured by anti-human Fc
T5 construct: also called human hyper-IL6 (IL6R-IL6-mIgG); dimeric HIL6
T5 chain: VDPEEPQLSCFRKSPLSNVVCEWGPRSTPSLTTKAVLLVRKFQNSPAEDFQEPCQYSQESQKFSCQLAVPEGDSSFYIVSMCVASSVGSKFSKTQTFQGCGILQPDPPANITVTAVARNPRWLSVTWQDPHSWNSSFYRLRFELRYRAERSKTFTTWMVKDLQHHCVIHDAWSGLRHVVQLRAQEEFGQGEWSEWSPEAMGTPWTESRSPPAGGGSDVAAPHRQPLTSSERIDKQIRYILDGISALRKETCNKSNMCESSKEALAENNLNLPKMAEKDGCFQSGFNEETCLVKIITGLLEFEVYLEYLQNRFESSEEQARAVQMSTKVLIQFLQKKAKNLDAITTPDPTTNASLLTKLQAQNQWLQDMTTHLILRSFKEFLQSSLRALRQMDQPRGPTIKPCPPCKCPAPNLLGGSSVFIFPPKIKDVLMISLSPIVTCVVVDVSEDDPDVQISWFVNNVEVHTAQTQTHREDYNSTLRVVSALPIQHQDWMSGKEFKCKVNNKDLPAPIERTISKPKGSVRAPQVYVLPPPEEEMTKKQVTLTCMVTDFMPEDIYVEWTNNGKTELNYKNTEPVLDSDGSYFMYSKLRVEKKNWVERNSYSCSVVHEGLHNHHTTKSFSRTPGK

[6] = molecular target: T6, hu HIL6 AFH monomer (human); assay: SPR Biacore T100, binder captured by anti-human Fc
T6 chain: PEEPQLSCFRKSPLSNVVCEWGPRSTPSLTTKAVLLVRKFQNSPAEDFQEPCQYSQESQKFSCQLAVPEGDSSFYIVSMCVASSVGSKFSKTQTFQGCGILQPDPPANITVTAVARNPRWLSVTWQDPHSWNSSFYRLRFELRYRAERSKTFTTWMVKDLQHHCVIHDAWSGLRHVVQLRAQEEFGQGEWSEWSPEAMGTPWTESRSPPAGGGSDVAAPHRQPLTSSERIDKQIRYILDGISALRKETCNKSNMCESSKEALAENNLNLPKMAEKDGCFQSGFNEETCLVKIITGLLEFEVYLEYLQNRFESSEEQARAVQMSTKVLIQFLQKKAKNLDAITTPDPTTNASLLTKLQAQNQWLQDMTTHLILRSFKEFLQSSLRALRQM

[7] = molecular target: T4, recombinant human IL6; assay: SPR Biacore T100, binder captured by anti-human Fc; remark: listed apart in the source
Protocol: (§1) Binding affinities and kinetic rate constants of interaction of hyper-IL6 (HIL6; monomer or dimer), and its components IL6 and sIL6R, with different anti-HIL6 binding domains in scFv, SMIP, Xceptor and reverse Xceptor formats were determined using a Biacore® T100 instrument (GE Healthcare, Piscataway, N.J.).
(§2) Anti-HIL6 SMIPS, Xceptors, and reverse Xceptors were captured by a monoclonal mouse anti-human Fc, which was covalently conjugated to a carboxylmethyl dextran (CM4) surface via amines using N-ethyl-N′-(3-dimethylaminopropyl)-carbodiimide hydrochloride and N-hydroxysuccinimide. The unoccupied sites of the activated surface were blocked by ethanolamine. […] In every cycle, three different HIL6 binders were captured on flow cells 2, 3 and 4, while flow cell 1 was used as the reference cell. For each cycle, a single concentration of a single HIL6-related molecule was injected for 150 seconds at 35 microliters per minute, and then allowed to dissociate for 300 seconds. At the end of the cycle, the surface was regenerated gently using 3M MgCl₂, which dissociates protein bound to anti-hFc capture antibody. Multiple cycles were performed to study binding of monomeric or dimeric HIL6 at different concentrations, in the range of 0-100 nM, for each set of three HIL6 binders captured. […] The experiment was performed at 25° C. Signal associated with binding to the reference cell was used to subtract for bulk refractive changes and blank (buffer-only) injections were used to correct for drift and system noise. The kinetic parameters and affinities were determined using BIAevaluation software. Anti-HIL6 scFv molecules were analyzed in the reverse orientation using a dimeric human HIL6/mouse IgG Fc fusion protein captured by an immobilized rabbit polyclonal anti-mouse IgG Fc antibody on the surface and injecting different concentrations of scFv over the surface. For the HIL6 components IL6 (eBioscience, catalog no. 14-8069) and sIL6R, a single 100 nM injection was performed to obtain a qualitative assessment of binding.

[8] = molecular target: T5, hu HIL6 Fc dimer (dimeric human …); assay: SPR Biacore T100, binder captured by anti-human Fc
Protocol: as §1, §2

[9] = molecular target: T6, hu HIL6 AFH monomer; assay: SPR Biacore T100, binder captured by anti-human Fc
Protocol: as §1, §2

[10] = molecular target: T3, sIL6R Fc dimer; assay: SPR Biacore T100, binder captured by anti-human Fc; remark: listed apart in the source
Protocol: as §1, §2

T1 sequence (P01375 77-233 limits assumed): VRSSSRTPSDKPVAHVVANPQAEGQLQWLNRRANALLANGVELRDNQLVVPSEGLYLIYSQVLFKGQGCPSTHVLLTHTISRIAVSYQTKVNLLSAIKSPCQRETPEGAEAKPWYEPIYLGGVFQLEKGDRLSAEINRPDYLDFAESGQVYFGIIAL

B1: TRU(XT6)-1058 (Fc fusion)
chain: LPAQVAFTPYAPEPGSTCRLREYYDQTAQMCCSKCSPGQHAKVFCTKTSDTVCDSCEDSTYTQLWNWVPECLSCGSRCSSDQVETQACTREQNRICTCRPGWYCALSKQEGCRLCAPLRKCRPGFGVARPGTETSDVVCKPCAPGTFSNTTSSTDICRPHQICNVVAIPGNASMDAVCTSTSPTRSMAPGAVHLPQPVSTRSQHTQPTPEPSTAPSTSFLLPMGPSPPAEGSTGDTGEPKSSDKTHTCPPCPAPEAAGAPSVFLFPPKPKDTLMISRTPEVTCVVVDVSHEDPEVKFNWYVDGVEVHNAKTKPREEQYNSTYRVVSVLTVLHQDWLNGKAYACAVSNKALPAPIEKTISKAKGQPREPQVYTLPPSRDELTKNQVSLTCLVKGFYPSDIAVEWESNGQPENNYKTTPPVLDSDGSFFLYSKLTVDKSRWQQGNVFSCSVMHEALHNHYTQKSLSLSPGQRHNNSSLNTRTQKARHSPNSEVQLLESGGGLVQPGGSLRLSCAASGFTFSMYTMHWVRQAPGKGLEWVSWISPSGGWTKYADSVKGRFTISRDNSKNTLYLQMNSLRAEDTAVYYCAVSPWGGPFDYWGQGTLVTVSSGGGGSGGGGSGGGGSQDIQMTQSPSTLSASVGDRVTITCRASQSISSWLAWYQQKPGKAPKLLIYKASTLESGVPSRFSAGGSGTEFTLTISSLQPDDFGTYYCQQYNSYSLTFGGGTKVEII
notes: Xceptor, TNFRSF1B ectodomain N-terminal, anti-IL6xR domain C-terminal
B1: binds [1]; no binding (tested: 75 pM sIL-6R) [2].

B2: TRU(XT6)-1019 (Fc fusion)
chain: LPAQVAFTPYAPEPGSTCRLREYYDQTAQMCCSKCSPGQHAKVFCTKTSDTVCDSCEDSTYTQLWNWVPECLSCGSRCSSDQVETQACTREQNRICTCRPGWYCALSKQEGCRLCAPLRKCRPGFGVARPGTETSDVVCKPCAPGTFSNTTSSTDICRPHQICNVVAIPGNASMDAVCTSTSPTRSMAPGAVHLPQPVSTRSQHTQPTPEPSTAPSTSFLLPMGPSPPAEGSTGDTGEPKSSDKTHTCPPCPAPEAAGAPSVFLFPPKPKDTLMISRTPEVTCVVVDVSHEDPEVKFNWYVDGVEVHNAKTKPREEQYNSTYRVVSVLTVLHQDWLNGKAYACAVSNKALPAPIEKTISKAKGQPREPQVYTLPPSRDELTKNQVSLTCLVKGFYPSDIAVEWESNGQPENNYKTTPPVLDSDGSFFLYSKLTVDKSRWQQGNVFSCSVMHEALHNHYTQKSLSLSPGQRHNNSSLNTRTQKARHSPNSEVQLLESGGGLVQPGGSLRLSCAASGFTFSWYLMHWVRQAPGKGLEWVSGIWPSGGHTLYADSVKGRFTISRDNSKNTLYLQMNSLRAEDTAVYYCAREPLLWFGELSYNWFDPWGQGTLVTVSSGGGGSGGGGSGGGGSQDIQMTQSPSSVSASVGDRVTITCRASQGISSWLAWYQQKPGKAPKLLIYAASSLQSGVPSRFSGSGSGTDFTLTISSLQPEDFATYYCQQANSFPLTFGGGTKVEIK
notes: as for B1
In the case of B2, the binding result [3] is reported as “no binding (tested: 100 nM)”, the Kd [4] is reported as 1 nM and the Kd [5] is reported as 5.7 nM. The Kd [6] was 17 nM, the binding result [1] was “binds” and the binding result [2] was “no binding (tested: 75 pM sIL-6R)”.

B3: TRU(X6T)-1019 (Fc fusion)
chain: EVQLLESGGGLVQPGGSLRLSCAASGFTFSWYLMHWVRQAPGKGLEWVSGIWPSGGHTLYADSVKGRFTISRDNSKNTLYLQMNSLRAEDTAVYYCAREPLLWFGELSYNWFDPWGQGTLVTVSSGGGGSGGGGSGGGGSQDIQMTQSPSSVSASVGDRVTITCRASQGISSWLAWYQQKPGKAPKLLIYAASSLQSGVPSRFSGSGSGTDFTLTISSLQPEDFATYYCQQANSFPLTFGGGTKVEIKTGEPKSSDKTHTCPPCPAPEAAGAPSVFLFPPKPKDTLMISRTPEVTCVVVDVSHEDPEVKFNWYVDGVEVHNAKTKPREEQYNSTYRVVSVLTVLHQDWLNGKAYACAVSNKALPAPIEKTISKAKGQPREPQVYTLPPSRDELTKNQVSLTCLVKGFYPSDIAVEWESNGQPENNYKTTPPVLDSDGSFFLYSKLTVDKSRWQQGNVFSCSVMHEALHNHYTQKSLSLSPGQRHNNSSLNTRTQKARHSPNSLPAQVAFTPYAPEPGSTCRLREYYDQTAQMCCSKCSPGQHAKVFCTKTSDTVCDSCEDSTYTQLWNWVPECLSCGSRCSSDQVETQACTREQNRICTCRPGWYCALSKQEGCRLCAPLRKCRPGFGVARPGTETSDVVCKPCAPGTFSNTTSSTDICRPHQICNVVAIPGNASMDAVCTSTSPTRSMAPGAVHLPQPVSTRSQHTQPTPEPSTAPSTSFLLPMGPSPPAEGSTGD
With B3 the binding result [3] was “no binding (tested: 100 nM)”, the Kd [4] was 0.57 nM and the Kd [5] was 300 nM. The Kd [6] was 1.9 nM, the binding result [1] was “binds” and the binding result [2] was “no binding (tested: 75 pM sIL-6R)”.

B4: TRU(S6)-1025 (Fc fusion)
chain: EVQLLESGGGLVQPGGSLRLSCAASGFTFSHYGMHWVRQAPGKGLEWVSSIYPGMTQYADSVKGRFTISRDNSKNTLYLQMNSLRAEDTAVYYCARDRGSGIDAFDIWGQGTMVTVSSGGGGSGGGGSGGGGSQSELTQPPSVSVSPGQTATVSCSGEKLGDRYAWWYQQKAGQSPVLVIYQDTKRPSGVPDRFSGSNSGTSASLVISGPQSEDEADYYCAAWDDSLKGVVFGGGSKLTVLTGEPKSSDKTHTCPPCPAPEAAGAPSVFLFPPKPKDTLMISRTPEVTCVVVDVSHEDPEVKFNWYVDGVEVHNAKTKPREEQYNSTYRVVSVLTVLHQDWLNGKAYACAVSNKALPAPIEKTISKAKGQPREPQVYTLPPSRDELTKNQVSLTCLVKGFYPSDIAVEWESNGQPENNYKTTPPVLDSDGSFFLYSKLTVDKSRWQQGNVFSCSVMHEALHNHYTQKSLSLSPGK
notes: SMIP (scFv - linker - CH2CH3)
In the case of B4, the binding result [7] is reported as “no binding (tested: 100 nM)”, the Kd [8] is reported as 4.4 nM and the Kd [9] is reported as 2.6 nM.

B5: TRU(S6)-1029 (Fc fusion)
chain: EVQLLESGGGLVQPGGSLRLSCAASGFTFSSYWMHWVRQAPGKGLEWVSSIYPSGGSTEYADSVKGRFTISRDNSKNTLYLQMNSLRAEDTAVYYCAKGIWFDPWGQGTLVTVSSGGGGSGGGGSGGGGSQDIQMTQSPATLSASVGDRVTITCRSSQRISGYLNWYQQQPGKAPKLLIYAASTLQSGVPSRISGSGSGTDFSLIISSLQPEDVATYYCQQSYSPPFTFGGGTKVEIKTGEPKSSDKTHTCPPCPAPEAAGAPSVFLFPPKPKDTLMISRTPEVTCVVVDVSHEDPEVKFNWYVDGVEVHNAKTKPREEQYNSTYRVVSVLTVLHQDWLNGKAYACAVSNKALPAPIEKTISKAKGQPREPQVYTLPPSRDELTKNQVSLTCLVKGFYPSDIAVEWESNGQPENNYKTTPPVLDSDGSFFLYSKLTVDKSRWQQGNVFSCSVMHEALHNHYTQKSLSLSPGK
notes: SMIP (scFv - linker - CH2CH3)
In the case of B5, the binding result [10] is reported as “no binding (tested: 100 nM)” and the Kd [9] is reported as 180 nM.
